Test results: the supplement of paper PMC11136658

Tested on: peptide library, one residue held at a place counted from the Y acceptor
Test: relative phosphorylation of the sub-library (ratio to the mean residue at this position); higher = residue favoured
How it was run: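 Within 384-well plates, purified recombinant kinases phosphorylated biotinylated Tyr-centred peptide library mixtures over 90 min using 50 μM ATP spiked with γ-32P-ATP; each mixture fixed one residue at one position from −5 to +5. Streptavidin membrane capture, rinsing, phosphorimaging and ImageQuant gave the intensities. These were normalized per position to the sum of the 18 randomized residues (16 for the Ser/Thr-free library) and multiplied by that number.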

Chain of EPHB3, construct: aa623-907, human (P54753 623-907, looked up): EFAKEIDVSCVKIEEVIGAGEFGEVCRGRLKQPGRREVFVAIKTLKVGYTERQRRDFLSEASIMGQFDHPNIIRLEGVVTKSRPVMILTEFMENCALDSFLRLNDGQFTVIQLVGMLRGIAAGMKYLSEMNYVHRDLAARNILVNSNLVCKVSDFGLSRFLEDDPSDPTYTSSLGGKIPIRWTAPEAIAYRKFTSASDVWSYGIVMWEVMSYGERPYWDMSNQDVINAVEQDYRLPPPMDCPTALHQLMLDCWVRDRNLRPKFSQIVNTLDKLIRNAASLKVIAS

EPHB3, construct: aa623-907, human (from UniProt P54753)
relative phosphorylation
Conditions | at +1 | at +2 | at +3 | at +4 | at +5 | at -1 | at -2 | at -3 | at -4 | at -5
A fixed | 1.96 | 0.847 | 0.837 | 0.853 | 0.843 | 0.583 | 1.21 | 0.804 | 1.15 | 0.981
D fixed | 1.06 | 0.993 | 0.442 | 1.06 | 1.14 | 2.09 | 1.04 | 1.04 | 1.03 | 0.921
E fixed | 2.6 | 1.33 | 0.413 | 1.16 | 1.15 | 1.38 | 1.29 | 1.19 | 1.39 | 0.842
F fixed | 0.588 | 1.38 | 1.31 | 1.04 | 0.656 | 1.03 | 0.661 | 1.39 | 1.09 | 1.16
G fixed | 1.13 | 0.428 | 0.651 | 1.26 | 1.36 | 0.226 | 1.33 | 1.05 | 1.37 | 1.32
H fixed | 0.573 | 0.91 | 1.57 | 1.19 | 1.12 | 0.638 | 0.9 | 1.05 | 0.899 | 0.933
I fixed | 1.19 | 1.24 | 1.95 | 0.801 | 0.581 | 2.29 | 0.899 | 1.14 | 1.01 | 1.14
K fixed | 0.211 | 0.576 | 0.297 | 0.737 | 1.02 | 0.234 | 0.841 | 0.61 | 0.898 | 0.992
L fixed | 0.732 | 0.974 | 1.39 | 0.821 | 0.613 | 1.87 | 0.83 | 0.912 | 0.959 | 0.98
M fixed | 1.14 | 0.913 | 1.29 | 0.984 | 0.927 | 0.849 | 0.709 | 0.928 | 0.854 | 0.9
N fixed | 0.393 | 1.01 | 0.653 | 0.856 | 1.1 | 2.4 | 1.12 | 1.09 | 0.922 | 1.08
P fixed | 0.157 | 0.739 | 1.26 | 1.54 | 1.46 | 0.415 | 1.32 | 1.12 | 1.06 | 1.06
Q fixed | 1.31 | 0.954 | 0.799 | 1.01 | 1.07 | 0.406 | 1.18 | 0.837 | 1.11 | 0.989
R fixed | 0.278 | 0.768 | 0.468 | 0.855 | 1.32 | 0.239 | 0.896 | 0.722 | 0.84 | 1.03
S fixed | 1 | 0.886 | 0.689 | 0.8 | 1.2 | 0.516 | 1.3 | 1 | 0.82 | 0.869
T fixed | 0.903 | 0.989 | 0.796 | 0.865 | 1.16 | 1.03 | 0.96 | 0.942 | 0.762 | 0.761
V fixed | 1.64 | 1.29 | 1.7 | 0.814 | 0.552 | 1.1 | 0.848 | 0.874 | 0.777 | 0.795
W fixed | 1.12 | 1.77 | 1.49 | 1.36 | 0.723 | 0.697 | 0.672 | 1.31 | 1.05 | 1.26
pThr fixed | 1.34 | 1.82 | 0.32 | 0.825 | 0.763 | 1.63 | 0.847 | 0.897 | 0.873 | 0.831
pTyr fixed | 1.5 | 3.93 | 0.629 | 0.894 | 0.978 | 1.79 | 1.05 | 1.06 | 1.06 | 0.83
